Assay [1] concerns CD4 T cell clone BDC-5.2.9. It counts as cell-based, NOD mouse. Particulars: 24 h.
Assay [2] addresses islet amyloid polypeptide (IAPP), peptide KG38 peptide on I-Ag7 (mouse). Nature of the assay: IFN-γ ELISA.
The target in assay [3] is islet amyloid polypeptide (IAPP), peptide TS17 peptide on I-Ag7 (mouse). As to the kind of experiment: IFN-γ ELISA. (ELISA stands for enzyme-linked immunosorbent assay.)
Assay [4] deals with islet amyloid polypeptide (IAPP), peptide KN14 peptide on I-Ag7 (mouse). As to the kind of experiment: IFN-γ ELISA.
Assay [5] concerns the target islet amyloid polypeptide (IAPP), peptide CS19 peptide on I-Ag7 (mouse). As to the kind of experiment: IFN-γ ELISA.
The target of assay [6] is islet amyloid polypeptide (IAPP), peptide KV17 peptide on I-Ag7 (mouse). Nature of the assay: IFN-γ ELISA.
For assay [7], the target named is islet amyloid polypeptide (IAPP), peptide NS18 peptide on I-Ag7 (mouse). As to the kind of experiment: IFN-γ ELISA.
Assay [8] concerns the target islet amyloid polypeptide (IAPP), peptide KQ10 peptide on I-Ag7 (mouse). Nature of the assay: IFN-γ ELISA.
The target of assay [9] is islet amyloid polypeptide (IAPP), peptide KS20 peptide on I-Ag7 (mouse). Nature of the assay: IFN-γ ELISA.
Setting [10] is: T cell clone BDC-5.2.9 (2 × 10^4) with peritoneal exudate cells (2.5 × 10^4) and peptide, IFN-γ in culture supernatants of duplicate wells by ELISA.

Read-outs that look alike come from different tables or passages of the source.

The term EC50 denotes the midpoint of the concentration-response curve. Low values mean a more potent agent, high ones a less potent agent. In turn, `CC(C)C[C@H](NC(=O)[C@H](CC(N)=O)NC(=O)[C@H](CC(N)=O)NC(=O)[C@H](CO)NC(=O)[C@H](CO)NC(=O)[C@H](CCCNC(=N)N)NC(=O)[C@@H](NC(=O)[C@H](CC(C)C)NC(=O)[C@H](Cc1ccccc1)NC(=O)[C@H](CC(N)=O)NC(=O)[C@H](C)NC(=O)[C@H](CC(C)C)NC(=O)[C@H](CCCNC(=N)N)NC(=O)[C@H](CCC(N)=O)NC(=O)[C@@H](NC(=O)[C@H](C)NC(=O)[C@@H]1CSSC[C@H](NC(=O)[C@@H](N)CCCCN)C(=O)N[C@@H](CC(N)=O)C(=O)N[C@@H]([C@@H](C)O)C(=O)N[C@@H](C)C(=O)N[C@@H]([C@@H](C)O)C(=O)N1)[C@@H](C)O)C(C)C)C(=O)NCC(=O)N1CCC[C@H]1C(=O)N[C@H](C(=O)N[C@@H](CC(C)C)C(=O)N1CCC[C@H]1C(=O)N1CCC[C@H]1C(=O)N[C@H](C(=O)N[C@@H](CC(N)=O)C(=O)N[C@H](C(=O)NCC(=O)N[C@@H](CO)C(=O)N[C@@H](CC(N)=O)C(=O)N[C@H](C(=O)N[C@@H](Cc1ccc(O)cc1)C(=O)NCC(=O)O)[C@@H](C)O)C(C)C)[C@@H](C)O)C(C)C` [KG38] returned an EC50 in assay [1] of 0.0002 µM.

With BDC-5.2.9, the EC50 of peptide in assay [2] was 0.0002 µM; in assay [3], more than 100 µM; in assay [4], more than 100 µM; in assay [5], 0.005 µM; in assay [6] it was 0.01 µM; in assay [7], more than 100 µM. The figures for the EC50 of peptide in assay [8] and in assay [9] were more than 100 µM and 0.0002 µM, respectively.

For KCNTATCATQ [KQ10], the EC50 in assay [1] (setting [10]) was more than 100 µM.

In turn, KCNTATCATQRLAN [KN14] gave an EC50 in assay [1] (setting [10]) of more than 100 µM.

Take NTATCATQRLANFLVRSS [NS18]: the EC50 in assay [1] (setting [10]) was more than 100 µM.

TATCATQRLANFLVRSS [TS17]: the EC50 in assay [1] (setting [10]) was more than 100 µM.

The values above are taken from paper PMC3815676 (Journal of immunology (Baltimore, Md. : 1950), 2013).
